Experimental data published in PMC2853134.

T1: TFIIB (UniProt P29055 1-345)
T1 sequence: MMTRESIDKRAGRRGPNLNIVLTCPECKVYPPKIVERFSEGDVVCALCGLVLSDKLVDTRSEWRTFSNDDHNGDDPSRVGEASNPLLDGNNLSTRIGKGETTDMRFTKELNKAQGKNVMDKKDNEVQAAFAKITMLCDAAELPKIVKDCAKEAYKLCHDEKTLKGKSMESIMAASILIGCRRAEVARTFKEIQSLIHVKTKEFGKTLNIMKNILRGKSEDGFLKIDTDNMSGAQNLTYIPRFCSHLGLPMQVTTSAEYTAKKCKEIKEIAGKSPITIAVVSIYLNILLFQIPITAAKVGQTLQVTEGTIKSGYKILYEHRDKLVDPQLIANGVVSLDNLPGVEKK

B1: B4-Del5 (structured_RNA)
RNA: GGGAGCUAAUGUAGGAUGCUGGGGUAGUCCAGCCCUAGAAUAAGCGCUAGUACUACAAGCUUCUGGAGCUCGGU
B2: MiniB4 (structured_RNA)
RNA: GGGAGCUAAUGUAGGAUGCUGGGGUAGUCCAGCCCUAGAAUAAGCGCUAGUACUACAAGCU
B3: B4-Del3 (structured_RNA)
RNA: GGGAGAAUUCAACUGCCAUCUAGGCAAAGAGCUAAUGUAGGAUGCUGGGGUAGUCCAGCCCUAGAAUAAGCGCUAGUACUACAAGCU

Target: T1, TFIIB
Assay: EMSA

Binding result, binds:
B1
B2
B3
